Columns and labels:
[1] = molecular target: T1, PCSK9 (species not stated, Table 7 assay) (Pan troglodytes (Chimpanzee); Homo …, UniProt A8T644 31-152; Q8NBP7 153-692); assay: SPR Biacore 2000, IgG on anti-human Fc, PCSK9 injected, pH 6.0
T1 construct: kept apart from m1 and m2
Description: (§1) Affinity and kinetic parameters for PCSK9 antibodies h5A10 and 5L1721H23_{—}6L3H3 as well as PCSK9 antibody H1M300N (see US2010/0166768, e.g., at Table 7). All experiments were performed on a Biacore 2000 biosensor.
(§2) An anti-human Fc sensor chip was prepared by activating all flow cells of a Biacore CM4 sensor chip with a 1:1 (v/v) mixture of 400 mM EDC and 100 mM NHS for 7 minutes, at a flow rate of 10 μL/min. An anti-human Fc reagent (Goat F(AB′)2 Fragment to Human IgG Fc, Cappel Catalog #: 55053) was diluted to 60 μg/mL in 10 mM Sodium Acetate pH 5.0 and injected on all flow cells for 7 minutes at 20 μL/min. All flow cells were blocked with 100 mM ethylenediamine in 150 mM Borate buffer pH 8.5 for 7 minutes at 10 μL/min.
(§3) The experiments were performed at pH 6.0 and 7.4 using sample and running buffers of 10 mM Sodium Phosphate, 150 mM Sodium Chloride, 0.05% Tween-20, pH 6 and 10 mM Sodium Phosphate, 150 mM Sodium Chloride, 0.05% Tween-20, pH 7.4, respectively.

[2] = molecular target: T1, PCSK9 (species not stated, Table 7 …); assay: SPR Biacore 2000, IgG on anti-human Fc, PCSK9 injected, pH 7.4
Description: as §1, §2, §3

[3] = molecular target: T2, human IgE-Fc (Ch2-Ch3-Ch4), minimally biotinylated (human, UniProt P01854-1 105-428, limits assumed, minimally biotinylated with EZ-Link NHS-LC-LC-biotin (sites not given)); assay: SPR Biacore T200, KD at pH 6.0 over KD at pH 7.4
T2 construct: domain: Ch2-Ch3-Ch4; Captured on NeutrAvidin chip; also called IgE construct; B-IgE
T2 sequence (P01854 other isoform, or with tags, fused parts or gaps limits assumed): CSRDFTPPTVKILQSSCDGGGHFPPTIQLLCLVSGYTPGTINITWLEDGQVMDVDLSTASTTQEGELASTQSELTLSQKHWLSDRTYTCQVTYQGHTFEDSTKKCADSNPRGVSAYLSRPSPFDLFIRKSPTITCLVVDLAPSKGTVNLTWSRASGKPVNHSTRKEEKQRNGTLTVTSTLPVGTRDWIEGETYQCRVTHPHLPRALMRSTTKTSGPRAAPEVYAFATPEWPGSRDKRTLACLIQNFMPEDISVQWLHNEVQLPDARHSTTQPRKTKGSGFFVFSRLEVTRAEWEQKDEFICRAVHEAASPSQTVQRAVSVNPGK
Description: (§4) All Biacore experiments were performed using two of the four flow cells (1&2 or 3&4) of the sensor chip in parallel. The downstream flow cell was used as analysis flow cell while the other flow cell was used as a reference surface. Thus, biotinylated IgE (B-IgE) was captured on the analysis flow cell and every purified Fab fragment was injected over both. The sensorgram from the reference flow cell was subtracted from that of the analysis flow cell.
(§5) Following capture of B-IgE, a purified Fab fragment was injected at 30 μL/min on analysis and reference flow cells in a series of injections from low to high concentration. The top concentration of Fab ranged from 30 nM to 200 nM and the dilution factor was 3-fold. Each Fab dilution was injected for 2 minutes, followed by a final dissociation time of 30 minutes after the last injection. A similar set of injections was performed with running buffer in place of Fab for double-referencing purposes (double-referencing as described in Myszka, J Mol Recognit 12: 279-284, 1999). The double-referenced sensorgrams were fit globally to a simple 1:1 Langmuir with mass transport binding model.
(§6) The experiments were performed at pH 6.0 and 7.4 using sample and running buffers of 10 mM Sodium Phosphate, 150 mM Sodium Chloride, 0.05% Tween-20, 1 mg/mL BSA, pH 6 and 10 mM Sodium Phosphate, 150 mM Sodium Chloride, 0.05% Tween-20, 1 mg/mL BSA, pH 7.4, respectively.

[4] = molecular target: T2, human IgE-Fc (Ch2-Ch3-Ch4), minimally …; assay: SPR Biacore T200, biotin-IgE-Fc captured, Fab injected, 25 C, pH 6.0
Description: (§7) A biotin-capture surface was prepared by immobilization of NeutrAvidin: all flow cells of a Biacore CM4 sensor chip were activated with a 1:1 (v/v) mixture of 400 mM EDC and 100 mM NHS for 7 minutes, at a flow rate of 10 μL/min. NeutrAvidin (Pierce, product #: 31000) was diluted to 100 μg/mL in 10 mM Sodium Acetate pH 4.5 and injected on all flow cells for 7 minutes at 20 μL/min. All flow cells were blocked with 100 mM Ethylenediamine in 150 mM Borate buffer pH 8.5 for 7 minutes at 10 μL/min.
as §5, §6

[5] = molecular target: T2, human IgE-Fc (Ch2-Ch3-Ch4), minimally …; assay: SPR Biacore T200, kd at pH 6.0 over kd at pH 7.4
Description: as §7, §5, §6

[6] = molecular target: T2, human IgE-Fc (Ch2-Ch3-Ch4), minimally …; assay: SPR Biacore T200, biotin-IgE-Fc captured, Fab injected, 25 C, pH 7.4
Description: as §4, §5, §6

T1 sequence (A8T644 31-152 limits assumed, chain 1 of 2): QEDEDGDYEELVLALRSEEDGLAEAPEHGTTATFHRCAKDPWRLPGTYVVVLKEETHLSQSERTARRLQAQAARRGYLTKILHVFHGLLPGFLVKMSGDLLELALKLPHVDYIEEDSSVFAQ
T1 sequence (A8T644 other isoform, or with tags, fused parts or gaps limits assumed, chain 2 of 2): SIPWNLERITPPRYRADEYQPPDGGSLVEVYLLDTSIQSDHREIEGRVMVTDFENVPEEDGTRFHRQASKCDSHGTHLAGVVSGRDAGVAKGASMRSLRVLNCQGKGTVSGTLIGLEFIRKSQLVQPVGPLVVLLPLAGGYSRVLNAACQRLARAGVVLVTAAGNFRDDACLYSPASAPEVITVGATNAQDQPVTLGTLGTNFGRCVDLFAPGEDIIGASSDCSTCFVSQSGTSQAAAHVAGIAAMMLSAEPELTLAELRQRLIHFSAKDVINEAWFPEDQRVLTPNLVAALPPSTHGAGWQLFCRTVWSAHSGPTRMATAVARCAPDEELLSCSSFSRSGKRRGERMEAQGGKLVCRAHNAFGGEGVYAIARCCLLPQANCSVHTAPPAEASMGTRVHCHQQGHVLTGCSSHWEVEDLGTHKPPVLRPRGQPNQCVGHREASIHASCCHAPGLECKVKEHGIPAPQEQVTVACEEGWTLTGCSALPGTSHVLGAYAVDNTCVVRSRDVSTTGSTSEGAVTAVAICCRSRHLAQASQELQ

B1: h5A10 (antibody, V domains shown)
VH: QVQLVQSGAEVKKPGASVKVSCKASGYTFTSYYMHWVRQAPGQGLEWMGEINPSGGRTNYNEKFKSRVTMTRDTSTSTVYMELSSLRSEDTAVYYCARERPLYAMDYWGQGTTVTVSS
VL: DIQMTQSPSSLSASVGDRVTITCKASQDVSTAVAWYQQKPGKAPKLLIYSASYRYTGVPSRFSGSGSGTDFTFTISSLQPEDIATYYCQQRYSTPRTFGQGTKLEIK
notes: In the histidine scan it was used as a Fab with a histidine tag at the C-terminus of CH1; also called 5A10 hu frame
Kd [1]: < 0.181 nM
koff [1]: < 6e-05 s⁻¹
kon [1]: 331000 M⁻¹ s⁻¹
t1/2 [1]: < 3.22 h
Kd [2]: < 0.249 nM
koff [2]: < 6e-05 s⁻¹
kon [2]: 241000 M⁻¹ s⁻¹
t1/2 [2]: < 3.22 h

B2: anti-IgE antibody 5.948-H100Y (Fab) (Fab, V domains shown)
VH: QVQLVQSGAEVKKPGASVKVSCKASGYTFTSYDINWVRQATGQGLEWMGWMDPNSGNTGYAQKFQGRVTMTRNTSISTAYMELSSLRSEDTAVYYCARGYYDSDGYYSFSGMDVWGQGTTVTVSS
VL: not shown
notes: Injected as purified Fab fragment
KD ratio pH 6.0/pH 7.4 [3]: 3.1
Kd [4]: 0.149 nM
koff [4]: 0.000152 s⁻¹
kon [4]: 1.02e+06 M⁻¹ s⁻¹
kd ratio pH 6/pH 7.4 [5]: 3.03
Kd [6]: 0.0487 nM
koff [6]: 5.01e-05 s⁻¹
kon [6]: 1.03e+06 M⁻¹ s⁻¹

B3: L38H312H100Y (Fab) (Fab, V domains shown)
VH: QVQLVQSGAEVKKPGASVKVSCKASGYTFTSYDINWVRQATGQGLEWMGWMDPNSGNTGYAQKFQGRVTMTRNTSISTAYMELSSLRSEDTAVYYCARGYYDSDGYYSFHGMDVWGQGTTVTVSS
VL: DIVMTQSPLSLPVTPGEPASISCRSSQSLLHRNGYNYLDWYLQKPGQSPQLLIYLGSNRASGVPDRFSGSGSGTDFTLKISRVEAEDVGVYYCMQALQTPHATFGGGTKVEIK
KD ratio pH 6.0/pH 7.4 [3]: 7
Kd [4]: 37.1 nM
koff [4]: 0.0122 s⁻¹
kon [4]: 329000 M⁻¹ s⁻¹
kd ratio pH 6/pH 7.4 [5]: 11.3
Kd [6]: 5.33 nM
koff [6]: 0.00108 s⁻¹
kon [6]: 202000 M⁻¹ s⁻¹

B4: H25H100Y (Fab) (Fab, V domains shown)
VH: QVQLVQSGAEVKKPGASVKVSCKASGYTFTSYDINWVRQATGQGLEWMGWMDPHSGNTGYAQKFQGRVTMTRNTSISTAYMELSSLRSEDTAVYYCARGYYDSDGYYSFSGMDVWGQGTTVTVSS
VL: not shown
KD ratio pH 6.0/pH 7.4 [3]: 8
Kd [4]: 5.08 nM
koff [4]: 0.00151 s⁻¹
kon [4]: 298000 M⁻¹ s⁻¹
kd ratio pH 6/pH 7.4 [5]: 7.66
Kd [6]: 0.634 nM
koff [6]: 0.000197 s⁻¹
kon [6]: 311000 M⁻¹ s⁻¹

B5: H17H25H100Y (Fab) (Fab, V domains shown)
VH: QVQLVQSGAEVKKPGASVKVSCKASGYTFTSHDINWVRQATGQGLEWMGWMDPHSGNTGYAQKFQGRVTMTRNTSISTAYMELSSLRSEDTAVYYCARGYYDSDGYYSFSGMDVWGQGTTVTVSS
VL: not shown
KD ratio pH 6.0/pH 7.4 [3]: 8.6
Kd [4]: 16.3 nM
koff [4]: 0.00364 s⁻¹
kon [4]: 223000 M⁻¹ s⁻¹
kd ratio pH 6/pH 7.4 [5]: 8.63
Kd [6]: 1.9 nM
koff [6]: 0.000422 s⁻¹
kon [6]: 222000 M⁻¹ s⁻¹

From patent publication US20150266974A1 (RINAT NEUROSCIENCE, published 2015)
